Consider one substance from US20210324108A1.

The target in this assay is human 4-1BB on Jurkat-hu4-1BB-NFκB-luc2 reporter cells (human) (UniProt Q07011). Briefly: cell-based or functional assay.
human 4-1BB on Jurkat-hu4-1BB-NFκB-luc2 reporter cells (human), sequence (Q07011 24-255 limits assumed): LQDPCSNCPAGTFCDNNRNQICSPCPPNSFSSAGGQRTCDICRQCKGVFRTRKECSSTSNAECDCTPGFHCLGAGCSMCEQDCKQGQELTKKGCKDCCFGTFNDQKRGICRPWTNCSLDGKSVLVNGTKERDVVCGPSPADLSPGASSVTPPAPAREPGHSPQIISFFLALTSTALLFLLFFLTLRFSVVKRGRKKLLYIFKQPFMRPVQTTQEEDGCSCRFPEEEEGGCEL

Take “2+1 bispecific agonistic anti-4-1BB (20H4.9) x anti-FAP (4B9) huIgG1 P329GLALA antibody (bispecific antibody)”: the EC50 of NFκB-luciferase activation in Jurkat-hu4-1BB-NFκB-luc2 cells with NIH/3T3-huFAP clone 19 was determined as 0.02 nM and the area under the curve (AUC) of NFκB-luciferase activation in Jurkat-hu4-1BB-NFκB-luc2 cells with NIH/3T3-huFAP clone 19 was found to be 53500.
